Test results from publication doi:10.1101/172809 (bioRxiv, 2017).
Positions count from the first letter of the chain named. In names and notes the source's numbering stands.

B1: Mitochondrial Dynamics 49, MID49_(126-454) (domain or fragment, human, UniProt Q96C03-1 126-454, looked up)
chain: TLQERLLAFERDRVTIPAAQVALAKQLAGDIALELQAYFRSKFPELPFGAFVPGGPLYDGLQAGAADHVRLLVPLVLEPGLWSLVPGVDTVARDPRCWAVRRTQLEFCPRGSSPWDRFLVGGYLSSRVLLELLRKALAASVNWPAIGSLLGCLIRPSMASEELLLEVQHERLELTVAVLVAVPGVDADDRLLLAWPLEGLAGNLWLQDLYPVEAARLRALDDHDAGTRRRLLLLLCAVCRGCSALGQLGRGHLTQVVLRLGEDNVDWTEEALGERFLQALELLIGSLEQASLPCHFNPSVNLFSSLREEEIDDIGYALYSGLQEPEGLL
B2: Dynamin-Related Protein 1 (DRP1), wild type, full length, isoform 2 (enzyme, human, UniProt O00429-3 1-710, looked up)
chain: MEALIPVINKLQDVFNTVGADIIQLPQIVVVGTQSSGKSSVLESLVGRDLLPRGTGIVTRRPLILQLVHVSQEDKRKTTGEENGVEAEEWGKFLHTKNKLYTDFDEIRQEIENETERISGNNKGVSPEPIHLKIFSPNVVNLTLVDLPGMTKVPVGDQPKDIELQIRELILRFISNPNSIILAVTAANTDMATSEALKISREVDPDGRRTLAVITKLDLMDAGTDAMDVLMGRVIPVKLGIIGVVNRSQLDINNKKSVTDSIRDEYAFLQKKYPSLANRNGTKYLARTLNRLLMHHIRDCLPELKTRINVLAAQYQSLLNSYGEPVDDKSATLLQLITKFATEYCNTIEGTAKYIETSELCGGARICYIFHETFGRTLESVDPLGGLNTIDILTAIRNATGPRPALFVPEVSFELLVKRQIKRLEEPSLRCVELVHEEMQRIIQHCSNYSTQELLRFPKLHDAIVEVVTCLLRKRLPVTNEMVHNLVAIELAYINTKHPDFADACGLMNNNIEEQRRNRLARELPSAVSRDKLIQDSRRETKNVASGGGGVGDGVQEPTTGNWRGMLKTSKAEELLAEEKSKPIPIMPASPQKGHAVNLLDVPVPVARKLSAREQRDCEVIERLIKSYFLIVRKNIQDSVPKAVMHFLVNHVKDTLQSELVGQLYKSSLLDDLLTESEDMAQRRKEAADMLKALQGASQIIAEIRETHLW
B3: DRP1_(G362D), full length, disease-associated mutant (enzyme, human, UniProt O00429-3 1-710, looked up)
chain: B2 chain with G362D

How the values were obtained:
[1] = biological target: B2; test: cryo-EM structure
cryo-EM structure = biological target: the molecule itself; test: cryo-EM structure
SEC = biological target: the molecule itself; test: SEC

Binder: B1
- binding result [1]: binds

Binder: B2
- binding result (cryo-EM structure): binds

Binder: B3
- stoichiometry N (SEC): 2
